In the assay the target is T1, MK (endogenous, in the culture of CD4-positive T cells from wild-type murine spleens with APC) (UniProt P12025).
T1 sequence (looked up): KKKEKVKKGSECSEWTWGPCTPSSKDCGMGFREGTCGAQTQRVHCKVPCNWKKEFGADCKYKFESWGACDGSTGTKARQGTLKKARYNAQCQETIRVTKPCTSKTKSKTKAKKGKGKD
Nature of the assay: cell-based or functional assay.

B1: anti-MK antibody (IP-13) (antibody, from another filing, V domains shown)
VH: EVQLQQSGPELVKPGASVKIPCKASGYTFTDYNMGWVKQSHGKSLEWIGDINPNNGGTIYNQKFKGKATLTVDKSSSTAYMELRSLTSEDTAVYYCARWSYSNPYFDYWGQGTTLTVSS
VL: SIVMTQTPNFLLVSAGDRVTITCKASQSVSNDVSWYQQKPGQSPKLLIYYASNLYTGVPDRFTGSGYGTDFTFTISTVQAEDLAVYFCQQDYSSPWTFGGGTKLEIK
In turn, B1 came in with a proportion of CD4-positive, CD25-positive T cells among the CD4-positive T cells (flow cytometer; IP-13 30 µg/mL, MOG35-55 and APC, five days) of 4%.

Source of the values: patent US20100092488A1.
